Holding throughout (format): cell-based, human
For one assay, the system named is STAT3. Nature of the assay: Western blot of STAT3 and phospho-STAT3 in A375 cells. As to conditions: A375 cells exposed to interferon, 24 hours. As to the method:
(§1) FIG. 3. […] A375 cells were treated with 100 units/mL and 250 units/mL of IFN-γ or IFN-α for 24 hours; whole cell lysates and nuclear extracts were used for Western blot analysis to detect STAT3 and pSTAT3 respectively. […] Protein isolation and Western blotting. All samples were kept at 4° C. unless otherwise noted.
Nuclear and cytosolic protein extraction is described elsewhere (84). Cells were collected via centrifugation and re-suspended in buffer A (10 mM HEPES, pH 7.9, 10 mM KCl, 0.150 mM MgCl2, 0.5 mM DTT, 0.2 mM PMSF) with 1% PIC and allowed to swell for 10 minutes. 10% NP-40 was added and vortexed to lyse the cells. […] Buffer D (20 mM HEPES, 20% glycerol, 50 mM KCl, 0.5 mM EDTA, 0.5 mM DTT, and 0.2 mM PMSF) was then added to dilute the nuclear sample.
(§2) The membranes were blocked using 10% non-fat milk (NOS1, STAT1/2, Actin, Lamin A/C) or 5% bovine serum albumin (BSA; SH3057402; Fisher Scientific, Waltham, MA) (p-STAT1/3), then incubated with primary antibodies for 1 hour at room temperature or overnight at 4° C., followed by secondary antibodies for 1 hour at room temperature as recommended by the manufacturer. Blots were washed extensively with TBS-T after each antibody incubation.

Assay [1] has as its system PD-L1 in A375 melanoma cells. Nature of the assay: Cell surface PD-L1 expression by flow cytometry. As to the method: FIG. 4. […] Three melanoma cell lines were treated with 250 units/mL of interferons for 48 hours. Whole cell lysates were collected and subjected to RPPA assay. […] Red, high expression; green, low expression. All the data points were normalized for protein loading and transformed to linear value. […] Cell surface expression of PD-L1 was determined by flow cytometry. Representative histograms out of two independent experimental replicates are shown. C) IFN-α or IFN-γ (100 Units/ml); D-E) IFN-α or IFN-γ (250 Units/ml).
Expression levels of PD-L1 detected by Flow Cytometry.

The next assay concerns PD-L1 in A375 cells. Nature of the assay: PD-L1 expression by immunofluorescence staining. As to conditions: interferon alone, 250 Units/ml, 72 hours. As for the experimental part: FIG. 5. Expression of PD-L1 in metastatic melanoma A375 cells detected by immunofluorescence staining. […]. Cells were then fixed and permeabilized with 4% formaldehyde and methanol. Samples were blocked in blocking buffer containing 5% horse serum for 1 hour. The slides were then allowed to incubate in a 1:50 PD-L1 antibody dilution overnight at 4° C. and DAPI reagent for 1 hour. Representative images are shown stained with PD-L1 antibody (green) and DAPI (blue fluorescence). (Original magnifications, 100×). Representative images for 2 experimental replicates are shown.
Expression levels of PD-L1 detected by Immunofluorescence. A375 cells were plated on coverslips and incubated with 250 units/mL of IFN-α or IFN-γ in the presence or absence of […] of nNOS inhibitors for 72 hours. After treatment, cells on coverslips were fixed with 4% formaldehyde/PBS for 15 minutes at room temperature, followed by incubation with ice-cold 100% methanol for 10 minutes at −20° C. Samples were then incubated in blocking buffer (1×PBS, 5% horse serum, 0.3% Triton X-100) for 60 minutes, then in a 1:50 PD-L1 antibody dilution in dilution buffer (1×PBS, 1% BSA, 0.3% Triton X-100) overnight at 4° C. Stained specimens were rinsed with PBS then cured in the dark with DAPI fluorescence staining reagent for 1 hour. Slides were visualized and recorded using the BZ-X700 microscope (Keyence, Itasca, IL).

For assay [2], the system named is A375 metastatic melanoma cells. Nature of the assay: Matrigel invasion assay. As to conditions: compared to control, p<0.05. As for the experimental part: FIG. 1. A) Effect of IFN-γ on melanoma invasion potential detected by matrigel invasion assay. The represented data were from A375 metastatic melanoma cells treated with IFN-γ. *, p<0.05 compared to control. B) Adhesion analysis. A375 melanoma cells were seeded on top of fibroblast monolayer and incubated with IFN-γ for 1 hour, followed by MTT assay. *, p<0.05 compared to control.

The next assay concerns STAT1. Nature of the assay: Western blot of STAT1 in A375 cells. As to conditions: interferon alone. As for the experimental part:
as §1, §2

Data on 1 molecule can be found in patent US12083113B2, “Use of neuronal nitric oxide synthase inhibitors for immunotherapy in melanoma patients” (Northwestern University, priority 2018, dated 2024).

B1: IFN-γ: Interferon-gamma, purchased from Invitrogen (protein, UniProt P01579 24-161, looked up)
Interferon gamma: QDPYVKEAENLKKYFNAGHSDVADNGTLFLGILKNWKEESDRKIMQSQIVSFYFKLFKNFKDDQSIQKSVETIKEDMNVKFFNSNKKKRDDFEKLTNYSVTDLNVQRKAIHELIQVMAELSPAAKTGKRKRSQMLFRG
Consider B1, for which, in the assay on STAT3, the Phospho-STAT3 levels is recorded as 1.9 folds of control and the “expression levels of STAT3” value was 1.6 folds of control. For the same molecule, the “MFI of PD-L1 staining obtained via flow cytometry” value in assay [1] (A375 cells, IFN-γ alone or with MAC-3-190 (3 μM), 72-hour treatment) was 3.3 folds of control. For the same molecule, the “cell surface expression of PD-L1” value in assay [1] (interferon alone, three cell lines) is given as “increased”. Besides, the “extracellular expression of PD-L1” value in the assay with PD-L1 in A375 cells is recorded as “markedly induced”. In addition, the melanoma invasion potential result in assay [2] is given as “significantly enhanced”. In the assay on STAT1, the “expression of STAT1” value is reported as “higher induction”.
